Tests used:
[1] = target: recombinant mesothelin expressed on human epidermoid epithelial A431 cells (human) (UniProt Q13421)
[2] = target: recombinant mesothelin expressed on human epidermoid epithelial A431 cells (human) (UniProt Q13421); remark: listed apart in the source
[3] = target: recombinant mesothelin tagged with the Fc fragment of rabbit IgG (human) (UniProt Q13421); assay: flow cytometry on cells; inhibition: soluble MUC16 pre-incubated with meso-Fc (25 nM) for 1 h at 4°C; read out as meso-Fc left to bind OVCAR-3 cells
Sequence of recombinant mesothelin tagged with the Fc fragment of rabbit IgG (human) (Q13421 other isoform, or with tags, fused parts or gaps): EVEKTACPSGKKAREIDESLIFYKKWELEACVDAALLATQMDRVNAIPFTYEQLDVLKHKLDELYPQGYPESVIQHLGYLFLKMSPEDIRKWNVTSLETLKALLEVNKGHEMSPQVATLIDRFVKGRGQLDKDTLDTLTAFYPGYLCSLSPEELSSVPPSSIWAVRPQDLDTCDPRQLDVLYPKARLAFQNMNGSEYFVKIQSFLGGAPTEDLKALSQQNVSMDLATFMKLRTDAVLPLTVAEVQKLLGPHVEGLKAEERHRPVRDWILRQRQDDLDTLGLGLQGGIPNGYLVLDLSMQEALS

Sequence of recombinant mesothelin expressed on human epidermoid epithelial A431 cells (human) (Q13421 other isoform, or with tags, fused parts or gaps): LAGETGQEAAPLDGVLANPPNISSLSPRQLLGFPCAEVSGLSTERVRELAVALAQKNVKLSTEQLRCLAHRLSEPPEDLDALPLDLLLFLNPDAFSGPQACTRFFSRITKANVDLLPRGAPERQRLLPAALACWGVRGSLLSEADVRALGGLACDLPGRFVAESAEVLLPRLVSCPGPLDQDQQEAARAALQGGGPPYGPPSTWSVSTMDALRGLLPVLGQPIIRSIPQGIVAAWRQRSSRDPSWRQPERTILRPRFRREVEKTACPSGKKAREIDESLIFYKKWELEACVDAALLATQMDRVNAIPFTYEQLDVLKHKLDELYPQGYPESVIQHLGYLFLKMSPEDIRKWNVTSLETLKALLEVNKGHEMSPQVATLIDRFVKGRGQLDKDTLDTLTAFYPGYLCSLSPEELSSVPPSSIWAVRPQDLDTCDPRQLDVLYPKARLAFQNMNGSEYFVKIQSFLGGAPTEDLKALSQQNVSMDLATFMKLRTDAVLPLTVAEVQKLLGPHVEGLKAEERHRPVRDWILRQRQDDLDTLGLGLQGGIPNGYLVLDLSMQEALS

reduction of heterotypic cell adhesion between #12 and A431-Meso+ cells by ascites of EOC patients (#15 and #24), flow cytometry [1]	heterotypic doublets between MUC16 positive #12 cells and A431-Meso+ cells in PBS with 1% BSA, percent of total live cells, flow cytometry [2]	percent inhibition of meso-Fc binding to OVCAR-3 cells (MUC16 at half the molar amount of meso-Fc) [3]	Substance
33%	25%		MUC16 expressed on the surface of the ovarian tumor cell line OVCAR-3, Q8WXI7 1-14507
		80%	native MUC16 partially purified from OVCAR-3 cell culture media, Q8WXI7 1-14451

— paper PMC1635730
